In article PMC9478400, “Identification and characterization of a novel hydroxylamine oxidase, DnfA, that catalyzes the oxidation of hydroxylamine to N2” (The Journal of Biological Chemistry, 2022):

Key:
[1] = molecular target: T1, DnfA (Alcaligenes ammonioxydans, UniProt A0ABX8SXK4); test: isothermal titration calorimetry; format: binding; conditions: 25 °C; hydroxylamine injected into enzyme
T1 construct: gene FE795_13025; full-length, 6xHis-tagged, pET-21a, E. coli BL21(DE3); dimer by gel filtration; diiron (residues Glu88, Glu123, His126, Glu182, His209, Glu213, His216)
T1 sequence (A0ABX8SXK4 1-317): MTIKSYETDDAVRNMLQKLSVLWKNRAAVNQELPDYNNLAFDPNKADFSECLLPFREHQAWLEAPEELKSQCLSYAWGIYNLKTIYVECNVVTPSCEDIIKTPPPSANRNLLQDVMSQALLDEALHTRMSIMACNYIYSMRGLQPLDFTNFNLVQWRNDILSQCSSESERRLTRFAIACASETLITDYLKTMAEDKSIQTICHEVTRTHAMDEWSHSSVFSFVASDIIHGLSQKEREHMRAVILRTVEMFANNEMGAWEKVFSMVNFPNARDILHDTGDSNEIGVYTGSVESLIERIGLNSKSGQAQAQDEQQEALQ

[2] = molecular target: T1, DnfA; test: differential scanning fluorimetry; format: binding; conditions: 10 mM compound, 100 μg/ml DnfA, 20 mM Tris-HCl pH 8.0, SYPRO Orange
[3] = molecular target: DnfA hydroxylamine oxidase of Alcaligenes ammonioxydans HO-1 (Alcaligenes ammonioxydans HO-1); test: SEC; gel filtration of native DnfA on Superdex 200 Increase 10/300 GL; mobile phase 20 mM Tris-HCl, 150 mM NaCl, pH 8.0; UV absorbance at 280 nm
[4] = substrate: NO; test: Michaelis-Menten, nonlinear regression, N2-forming hydroxylamine oxidation; format: biochemical, Alcaligenes ammonioxydans; conditions: 10 μM DnfA, 100 μM FAD, 1 mM NADH, atmospheric O2, 15 to 400 μM NH2OH
Description: Michaelis-Menten, nonlinear regression, N2-forming hydroxylamine oxidation on DnfA | the Michaelis–Menten constant (Km) for hydroxylamine

NO [hydroxylamine]
isothermal titration calorimetry [1]: none of them interacted with ammonia, but DnfA bound to hydroxylamine | differential scanning fluorimetry [2]: DSF test demonstrated also that DnfA bound hydroxylamine

DnfA hydroxylamine oxidase of Alcaligenes ammonioxydans HO-1 (enzyme)
stoichiometry N [3]: 2

B1: DnfA (Alcaligenes ammonioxydans) (protein)
chain: MTIKSYETDDAVRNMLQKLSVLWKNRAAVNQELPDYNNLAFDPNKADFSECLLPFREHQAWLEAPEELKSQCLSYAWGIYNLKTIYVECNVVTPSCEDIIKTPPPSANRNLLQDVMSQALLDEALHTRMSIMACNYIYSMRGLQPLDFTNFNLVQWRNDILSQCSSESERRLTRFAIACASETLITDYLKTMAEDKSIQTICHEVTRTHAMDEWSHSSVFSFVASDIIHGLSQKEREHMRAVILRTVEMFANNEMGAWEKVFSMVNFPNARDILHDTGDSNEIGVYTGSVESLIERIGLNSKSGQAQAQDEQQEALQ
notes: full-length, 6xHis-tagged, pET-21a, E. coli BL21(DE3); dimer by gel filtration; diiron (residues Glu88, Glu123, His126, Glu182, His209, Glu213, His216)
Km [4]: 92.9 ± 3.0 µM | kcat [4]: 0.028 ± 0.001 s⁻¹
